Data on 1 substance can be found in US20060223158.

Data set [1] has as its system p35-His6 purified from insect Sf9 cultures.
The test system of data set [2] is Cdk5 purified from insect Sf9 cultures.

CK1α (New England Biolabs), sequence (P48729 2-337): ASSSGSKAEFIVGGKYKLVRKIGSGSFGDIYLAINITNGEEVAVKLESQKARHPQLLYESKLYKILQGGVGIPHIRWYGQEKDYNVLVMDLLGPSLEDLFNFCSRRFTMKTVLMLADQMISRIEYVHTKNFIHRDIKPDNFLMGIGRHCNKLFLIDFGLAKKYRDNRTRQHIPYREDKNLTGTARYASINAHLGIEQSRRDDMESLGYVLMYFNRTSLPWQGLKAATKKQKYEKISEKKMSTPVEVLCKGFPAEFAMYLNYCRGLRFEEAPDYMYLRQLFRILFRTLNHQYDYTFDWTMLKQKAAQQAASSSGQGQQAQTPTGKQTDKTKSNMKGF

With CK1α (New England Biolabs), in data set [1], the “32P incorporation, in vitro phosphorylation, SDS-PAGE and autoradiography” value is “CKI was able to efficiently phosphorylate p25”; the “stoichiometry of phosphorylation in vitro” value is “phosphorylation of p25 to approximately 2 mol/mol”. Also, the “32P incorporation, in vitro phosphorylation, SDS-PAGE and autoradiography” value in data set [2] is given as “phosphorylated Cdk5 catalytic subunit to a much lesser extent”.
